This is an account of results in PMC4538796.

For data set [1], the target named is brH (GCN4 basic region/AT-Hook conjugate) (UniProt P03069). The data set can be described thus: fluorescence anisotropy. The note with it: 20 C; 25 nM DNA; apparent; Anisotropy (given for GAGAH): 20 mM Tris-HCl pH 7.5, 100 mM NaCl, 0.02 mM ZnCl2, 20 C, 25 nM TMR-DNA; EMSA: 75 nM dsDNA, rt (GAGAH), 10% native PAGE, 0.5x TBE ….
Data set [2] deals with GAGAH (GAGA zinc finger/AT-Hook conjugate) (UniProt Q08605). In words: fluorescence anisotropy. The settings on record: Zn2+, Anisotropy (given for GAGAH): 20 mM Tris-HCl pH 7.5, 100 mM NaCl, 0.02 mM ZnCl2, 20 C, 25 nM TMR-DNA, EMSA: 75 nM dsDNA, rt (GAGAH), 10% native PAGE, 0.5x TBE …. (In fluorescence polarisation assays a small probe gives low polarisation when free and higher when bound to something large.)
Sequence of UniProt Q08605 (Q08605 other isoform, or with tags, fused parts or gaps, change not shown): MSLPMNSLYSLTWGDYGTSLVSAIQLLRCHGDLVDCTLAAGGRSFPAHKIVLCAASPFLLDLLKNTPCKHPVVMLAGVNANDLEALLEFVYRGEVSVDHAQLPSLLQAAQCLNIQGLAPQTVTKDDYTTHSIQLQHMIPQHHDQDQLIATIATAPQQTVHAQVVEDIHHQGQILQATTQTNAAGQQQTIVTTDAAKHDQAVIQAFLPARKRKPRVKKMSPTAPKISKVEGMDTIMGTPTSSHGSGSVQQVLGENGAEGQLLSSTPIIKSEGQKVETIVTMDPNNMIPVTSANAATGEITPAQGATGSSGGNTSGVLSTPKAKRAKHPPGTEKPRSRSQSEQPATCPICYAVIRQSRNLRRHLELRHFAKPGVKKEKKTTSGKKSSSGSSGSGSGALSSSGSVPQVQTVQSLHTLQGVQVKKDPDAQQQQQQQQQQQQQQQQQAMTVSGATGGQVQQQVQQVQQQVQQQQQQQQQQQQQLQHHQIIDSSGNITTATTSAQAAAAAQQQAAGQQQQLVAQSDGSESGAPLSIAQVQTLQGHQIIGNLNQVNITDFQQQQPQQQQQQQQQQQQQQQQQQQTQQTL

On to “CGCGTCATAATTGAGAGCGC (double strand) [TMR-AP1hs·AT = TMR-AT·GAGA]”, for which the Kd in data set [1] came out at 28 nM; in data set [2] (20 C, 25 nM DNA, apparent), 26 nM; in data set [2] (excess calf thymus DNA competitor) it was 42 nM.
